Reference: patent publication US9988424 (DUKE UNIVERSITY, dated 2018)
Read-outs that look alike come from different tables or passages of the source.

How the values were obtained:
B.040 gp140C [1] = test: ELISA, OD405
B.con gp140CF [2] = molecular target: T1, B.con gp140CF; test: ELISA, OD405
T1 construct: also called B.con.env03 gp140CF

B.62357 140C = molecular target: T2, B.62357 140C; test: ELISA, OD405
T2 construct: also called B.62357 gp140C

B. 681-7 gp140C = test: ELISA, OD405
A.9004SS V1V2 Tags [3] = molecular target: T3, A.9004SS V1V2 Tags; test: ELISA, OD405
T3 Env construct: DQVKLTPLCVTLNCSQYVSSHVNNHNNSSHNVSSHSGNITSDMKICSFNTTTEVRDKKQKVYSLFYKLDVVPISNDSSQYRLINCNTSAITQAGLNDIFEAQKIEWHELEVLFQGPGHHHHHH

D.9009SA V1V2 Tags [4] = molecular target: T4, D.9009SA V1V2 Tags; test: ELISA, OD405
T4 Env construct: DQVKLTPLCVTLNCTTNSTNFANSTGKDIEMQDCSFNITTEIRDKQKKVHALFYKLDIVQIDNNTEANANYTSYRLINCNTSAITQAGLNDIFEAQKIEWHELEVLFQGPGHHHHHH

B.HXB/BAL gp140CFI = molecular target: T5, B.HXB/BAL gp140CFI (HIV-1, UniProt P04578 33-680); test: ELISA, OD405 at 10 ug/ml
T5 construct: also called B.HxB/Ba gp140 CFI

B.Case A2 V1/V2 tags [5] = test: ELISA, OD405 at 10 ug/ml
AE.97CNG2XF gp140CF = molecular target: T6, AE.97CNG2XF gp140CF (HIV-1); test: ELISA, OD405 at 10 ug/ml
T6 construct: also called E.97CNGX2F gp140CF

G.con gp140CF [6] = test: ELISA, OD405 at 10 ug/ml
A.9004SS V1/V2 tags = molecular target: T7, A.9004SS V1/V2 tags; test: ELISA, OD405 at 10 ug/ml
T7 V1V2 tags construct: T3 Env construct

B.9021 gp140C = B.9021 gp140C (HIV-1); test: ELISA, OD405 at 10 ug/ml
Con 6 gp120 = test: ELISA, OD405 at 10 ug/ml
SIV CPZ US-1 gp140CF = molecular target: T8, SIV CPZ US-1 gp140CF (SIVcpz); test: ELISA, OD405 at 10 ug/ml
T8 construct: also called US-1 SIVCPZ gp140CF
T8 chain: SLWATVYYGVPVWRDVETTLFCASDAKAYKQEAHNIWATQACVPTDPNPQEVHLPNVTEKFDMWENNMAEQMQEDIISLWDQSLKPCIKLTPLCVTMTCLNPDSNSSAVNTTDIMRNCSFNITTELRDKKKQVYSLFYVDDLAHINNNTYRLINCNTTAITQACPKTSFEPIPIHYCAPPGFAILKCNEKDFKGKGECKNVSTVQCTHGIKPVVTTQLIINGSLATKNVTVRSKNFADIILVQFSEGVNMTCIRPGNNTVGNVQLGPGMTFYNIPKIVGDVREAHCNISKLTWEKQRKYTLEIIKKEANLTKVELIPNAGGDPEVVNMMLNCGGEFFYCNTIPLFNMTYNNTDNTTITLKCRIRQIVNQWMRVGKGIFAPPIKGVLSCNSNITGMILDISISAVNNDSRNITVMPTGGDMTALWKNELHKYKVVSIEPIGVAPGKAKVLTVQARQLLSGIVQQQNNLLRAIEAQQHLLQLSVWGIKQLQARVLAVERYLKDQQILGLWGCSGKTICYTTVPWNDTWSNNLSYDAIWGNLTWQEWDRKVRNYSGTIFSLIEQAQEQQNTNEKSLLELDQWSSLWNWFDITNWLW

B.62357 gp140C = molecular target: T9, B.62357 gp140C; test: ELISA, OD405 at 10 ug/ml
T9 construct: also called B.62357 140C

C.1086 gp140 = molecular target: T10, C.1086 gp140; test: ELISA, OD405 at 10 ug/ml
T10 construct: also called C.1086gp140C

B.040 gp140C [7] = test: ELISA, OD405; remark: listed apart in the source
B.con gp140CF [8] = molecular target: T1, B.con gp140CF; test: ELISA, OD405; remark: listed apart in the source
G.con gp140CF [9] = molecular target: T11, G.con gp140CF; test: ELISA, OD405
T11 construct: also called G.con.env03 gp140CF

B.63521_V1V2 Tags = molecular target: T12, B.63521_V1V2 Tags; test: ELISA, OD405
T12 Env construct: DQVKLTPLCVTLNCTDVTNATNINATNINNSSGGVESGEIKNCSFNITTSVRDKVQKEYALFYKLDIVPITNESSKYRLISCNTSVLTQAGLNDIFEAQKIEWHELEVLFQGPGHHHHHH

C.1086 gp120 = C.1086 gp120 (HIV-1); test: ELISA, OD405
B.63521 gp140C = test: ELISA, OD405
AE.con gp140CF = molecular target: T13, AE.con gp140CF; test: ELISA, OD405
T13 construct: also called AE.con.env03 gp140CF

A.9004SS V1V2 Tags [10] = molecular target: T3, A.9004SS V1V2 Tags; test: ELISA, OD405
B. 684-6 gp140C = test: ELISA, OD405
D.9009SA V1V2 Tags [11] = molecular target: T4, D.9009SA V1V2 Tags; test: ELISA, OD405
B.Case A2 V1/V2 Tags [12] = molecular target: T14, B.Case A2 V1/V2 Tags; test: ELISA, OD405
T14 Env construct: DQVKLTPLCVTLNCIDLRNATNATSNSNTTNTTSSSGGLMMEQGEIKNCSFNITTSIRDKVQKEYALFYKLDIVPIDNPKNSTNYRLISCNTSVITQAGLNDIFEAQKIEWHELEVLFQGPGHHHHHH

Measured: binding result

B1: PG16 (antibody, V domains shown)
VH: QEQLVESGGGVVQPGGSLRLSCLASGFTFHKYGMHWVRQAPGKGLEWVALISDDGMRKYHSDSMWGRVTISRDNSKNTLYLQFSSLKVEDTAMFFCAREAGGPIWHDDVKYYDFNDGYYNYHYMDVWGKGTTVTVSS
VL: QSALTQPASVSGSPGQTITISCNGTSSDVGGFDSVSWYQQSPGKAPKVMVFDVSHRPSGISNRFSGSKSGNTASLTISGLHIEDEGDYFCSSLTDRSHRIFGGGTKVTVL
notes: also called mAb PG16; bnAb PG16
no binding (tested: 10 ug/ml): B.040 gp140C [1] | B.con gp140CF [2] | B.62357 140C | B. 681-7 gp140C | A.9004SS V1V2 Tags [3] | D.9009SA V1V2 Tags [4]

B2: 697D reverted unmutated ancestor antibody (antibody, V domains shown)
VH: QVQLVQSGAEVKKPGSSVKVSCKASGGTFSSYTISWVRQAPGQGLEWMGRIIPILGIANYAQKFQGRVTITADKSTSTAYMELSSLRSEDTAVYYCATSGVGLHFGYFDYWGQGTLVTVSS
VL: QSVLTQPPSVSGAPGQRVTISCTGSSSNIGAGYDVHWYQQLPGTAPKLLIYGNSNRPSGVPDRFSGSKSGTSASLAITGLQAEDEADYYCQSYDSSLSGYVFGTGTKVTVL
notes: also called 697D RUA
no binding (tested: 10 ug/ml): B.HXB/BAL gp140CFI | B.Case A2 V1/V2 tags [5] | AE.97CNG2XF gp140CF | G.con gp140CF [6] | A.9004SS V1/V2 tags | B.9021 gp140C | Con 6 gp120 | SIV CPZ US-1 gp140CF | B.62357 gp140C | C.1086 gp140

B3: CH59 reverted unmutated ancestor antibody (antibody, V domains shown)
VH: EVQLVESGGGLVQPGRSLRLSCAASGFTFDDYAMHWVRQAPGKGLEWVSGISWNSGSIGYADSVKGRFTISRDNAKNSLYLQMNSLRAEDTALYYCAKDSPRGELPFDYWGQGTLVTVSS
VL: SYELTQPPSVSVSPGQTARITCSGDALPKKYAYWYQQKSGQAPVLVIYEDSKRPSGIPERFSGSSSGTMATLTISGAQVEDEADYYCYSTDSSGNHRVFGGGTKLTVL
notes: also called CH59 RUA; CH59_RUA
no binding (tested: 10 ug/ml): B.040 gp140C [7] | B.con gp140CF [8] | G.con gp140CF [9] | B.63521_V1V2 Tags | C.1086 gp120 | B.63521 gp140C | AE.con gp140CF | A.9004SS V1V2 Tags [10] | B. 684-6 gp140C | D.9009SA V1V2 Tags [11] | B.Case A2 V1/V2 Tags [12]
